Data on 1 molecule can be found in PMC4586175 (Oncogene, 2009).

The target in the test is purified GST-RACK1 (human, UniProt P63244 1-317). Kind of test: pull-down.

B1: purified His-WRN protein (natural protein)
chain: not shown
With B1, the binding result is recorded as “binds”.
